The target of this data set is T1, IIA2 peptide (lambda-Cro mutant, helix-turn-helix) (phage lambda (designed mutant)) (UniProt P03040).
T1 sequence: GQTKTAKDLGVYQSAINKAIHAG
Put plainly: fluorescence titration (520 nm). Conditions: fluorescein-labeled peptide; Fluorescence: 20 uM (so in the source) phosphate buffer, room temperature, 15 min; CD: 20 mM phosphate pH 7.4 (stated for peptide CD), 20 uM each; microarray: PBS ….

Regarding “GCAATGGTACGGTACTTCCGGGCTGGCCAGATCAGACCCCGGATGATCATCCTTGTGAGAACCACAAAAGTGCACGCTACTTTGCTAA [SA23 aptamer]”, the Kd (as a rule, the concentration at which binding is half-saturated) was 1.64 µM.

On to “TCCGGGCTGGCCAGATCAGACCCCGGA [SA23 short2]”, for which the dissociation constant Kd is 9.61 µM.

In turn, TCCGGGG (double strand) [SA23 short1] displayed a Kd of 5.81 µM.

(Values after PMC7506613.)
